First the molecules themselves.
B1: E-OVA_(323-336) (peptide)
peptide: EWEAEAEAEWEGGGQAVHAAHAEINEAGR

Data set [1] concerns the molecule itself. Description: TEM + DLS.
Data set [2] has as its target B1. Description: TEM + rheology + circular dichroism. A general note: Circular dichroism is the unequal absorption of left and right circularly polarised light.

With B1, the binding result in data set [1] is “binds”.
Regarding KWKAKAKAKWKGGGSIINFEKL [K-OVA_(257-264)], the binding result in data set [2] and in data set [1] was “binds” each time.

The values are drawn from paper PMC8080410 (Bioactive Materials, 2021).
